Consider two molecules from patent US20050272633A1.

For this test, the target named is NIK624-947 (C-terminal domain of NIK) (human) (UniProt Q99558). The test is described as follows: yeast two-hybrid, against cγc 289-369 as reference.

Where no end group is shown, it is not given here.

Chain of NIK624-947 (C-terminal domain of NIK) (human) (Q99558 624-947 limits assumed): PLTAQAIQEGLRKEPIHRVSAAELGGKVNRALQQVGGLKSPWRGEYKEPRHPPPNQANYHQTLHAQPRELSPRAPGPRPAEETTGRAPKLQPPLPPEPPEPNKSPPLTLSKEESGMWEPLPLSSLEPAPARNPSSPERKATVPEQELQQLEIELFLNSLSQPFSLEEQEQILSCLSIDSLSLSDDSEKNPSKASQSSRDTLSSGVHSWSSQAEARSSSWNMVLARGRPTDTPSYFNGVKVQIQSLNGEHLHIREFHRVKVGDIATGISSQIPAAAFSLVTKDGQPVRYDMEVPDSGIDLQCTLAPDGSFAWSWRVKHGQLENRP

B1: cγc 289-357 (12 aa deleted from the membrane distal domain) (receptor, not shown: large carriers)
chain: RIPTLKNLEDLVTEYHGNFSAWSGVSKGLAESLQPDYSERLCLVSEIPPKGGALGEGPGASPCNQHSPY
In turn, B1 returned a reduction in affinity of 50%.

B2: cγc 289-325 (44 aa deleted from the ICD) (receptor, not shown: large carriers)
chain: RIPTLKNLEDLVTEYHGNFSAWSGVSKGLAESLQPDY
modifications: also: fused to GAL4 DNA-binding domain (two-hybrid bait), letters not given here
B2 yielded a reduction in affinity of 50%.
